{"source": "paper PMC10907630", "about": "“Phosphorylation regulates tau’s phase separation behavior and interactions with chromatin”", "binders": {"B1": {"name": "22 bp DNA (dsDNA)", "DNA 1": "ATTTAGAAATGTCCACTGTAGG", "DNA 2": "CCTACAGTGGACATTTCTAAAT"}}, "key": {"tau 1N4R [1]": {"molecular_target": "T1, tau 1N4R (UniProt P10636-7 1-412)", "T1 sequence (P10636 other isoform, or with tags, fused parts or gaps)": "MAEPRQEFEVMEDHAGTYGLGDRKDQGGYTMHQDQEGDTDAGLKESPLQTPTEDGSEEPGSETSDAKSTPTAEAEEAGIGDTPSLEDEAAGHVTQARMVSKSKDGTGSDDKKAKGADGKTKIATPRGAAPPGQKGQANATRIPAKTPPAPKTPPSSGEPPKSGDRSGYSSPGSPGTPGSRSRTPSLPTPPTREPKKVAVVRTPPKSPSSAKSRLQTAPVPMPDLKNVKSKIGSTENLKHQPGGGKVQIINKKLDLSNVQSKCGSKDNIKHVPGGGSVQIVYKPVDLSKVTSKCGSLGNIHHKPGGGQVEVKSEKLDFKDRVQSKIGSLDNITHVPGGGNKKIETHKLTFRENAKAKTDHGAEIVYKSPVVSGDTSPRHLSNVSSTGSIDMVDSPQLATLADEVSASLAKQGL", "test": "EMSA; 10 mM NaCl; Hill fit; EMSA: 20 nM DNA or nucleosome, 20 mM HEPES pH 7.2, 10 mM NaCl (or 150), 0.5 mM TCEP, 0.1% Tween-20, 5% sucrose, room temperature 20 min; FA: 10 nM DNA, same buffer with 10 mM NaCl, 0.01% NP-40 substitute, room temperature 10 min", "conditions": "protein: recombinant; tags: none stated; label: 5' 6-FAM on strand 1; blunt"}, "tau 1N4R [2]": {"molecular_target": "T1, tau 1N4R", "test": "fluorescence anisotropy; 10 mM NaCl; Hill fit; EMSA: 20 nM DNA or nucleosome, 20 mM HEPES pH 7.2, 10 mM NaCl (or 150), 0.5 mM TCEP, 0.1% Tween-20, 5% sucrose, room temperature 20 min; FA: 10 nM DNA, same buffer with 10 mM NaCl, 0.01% NP-40 substitute, room temperature 10 min", "conditions": "protein: recombinant; tags: none stated; label: 5' 6-FAM on strand 1; blunt"}}, "data": [{"binder": "B1", "values": [{"measurement": "Kd", "setting": "tau 1N4R [1]", "result": "112 ± 3.7", "unit": "nM"}, {"measurement": "Kd", "setting": "tau 1N4R [2]", "result": "6.3 ± 0.5", "unit": "nM"}]}]}
